Reference: US20200079851A1 (University of Texas, published 2020)

T1: D2-SR-M2(139-235)
T1 chain: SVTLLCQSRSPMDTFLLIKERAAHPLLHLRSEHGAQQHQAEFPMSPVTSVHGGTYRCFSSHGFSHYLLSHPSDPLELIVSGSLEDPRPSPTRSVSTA

B1: anti-LILRB4 rabbit monoclonal antibody #216-2 (antibody, V domains shown)
VH: EQSLKESGGRLVTPGTPLTLTCTVSGIDLSSYAMTWVRQVPGKGLEYIGFINIVGIAGYATWAKGRFTISKTSTTVDLKVTSPTTEDTATYFCARNWIRLDLWGQGTLVTVSS
VL: ELVMTQTPASVSAAVGGTVTISCQSSESLYKKNYLSWFQQKPGQPPKLLIYEASKLASGVPSRFSGSGSGTQFTLTISDVQCDDAASYYCLGDYTNGRDTTFGGGTEVEIK
B2: anti-LILRB4 rabbit monoclonal antibody #8 (antibody, V domains shown)
VH: QSVKESGGGLVTPGGTLTLTCTASGFSLISYDMYWVRQAPGKGLEYIGIIYSDGYTFYATGAKGRITISRTSTTVDLKITSPTTEDTATYFCATNAFALWGQGTLVTISS
VL: ELDLTQTPSSVSAAVGGTVTISCQSSQNVYNNNWLVWLQQKPGQPPKRLIYTASSLASGVPSRFAGSGSATQFTLTISDLECGDAATYYCAGGYSGPIYTFGGGTEVEIK
notes: also called mAb 8
B3: anti-LILRB mAb C39 (antibody, V domains shown)
VH: EVQLVESGGGLVQPGGSLKLSCAASGFTFSSYGMSWVRQTPDKRLELVATIDSNGGGTYYPDSVKGRFTISRDNAKNTLYLQMSSLKSEDTAMHYCARDGGGSYGYYYAMDYWGQGTSVTVSS
VL: DIVMSQSPSSLAVSAGEKVTMRCKSSQSLLNSRTRKSYLAWYQQKSGQSPKLLIYWASTRESGVPDRFTGSGSGTDFTLTISSVQAEDLAVYYCKQSYNLPWTFGGGTKLEIK
notes: mAb against LILRB2
B4: anti-LILRB4 rabbit monoclonal antibody #128-3 (antibody, V domains shown)
VH: EQSLEESGGDLVTPGASLTLTCKASGIDFSNHYYIYWVRQAPGKGLEWIGCIFSGDSASTYYASWAKGRFTISKSSSPTVTLQMTSLTAADTATYFCARGMSTNDWASDLWGPGTMVTVSS
VL: ELVMTQTPASVSAAVGGTVTINCQASESINSIYLAWYQQKPGQRPKLLIYRASTLASGVSSRFKGSASGTGFTLTISDLECADAATYYCQQSYDWGDVENTFGGGTEVEIK
B5: anti-LILRB4 rabbit monoclonal antibody #139 (antibody, V domains shown)
VH: EQSLEESGGRLVTPGTPLTLTCTVSGFSLNSYAMAWVRQAPGKGLEWIGIIGLSTMTYYASWVNGRFTISKTSTTVDLKMTSLTTEDTATYFCVRNDVYWAFNLWGQGTLVTVSS
VL: ELDLTQTPSSVSAGVGGTVSISCQSSESVVNNHALSWYQQKPGQPPKLLIYKASTLASGVPSRFSGSGSGAQFTLTISGVQCDDAATYYCQGGFYSGISDYPFGGGTEVEIK

Tests used:
human LILRB4 [1] = target: T2, human LILRB4 (human, UniProt Q8NHJ6 22-259, limits assumed); assay: ELISA
T2 construct: also called leukocyte immunoglobulin-like receptor subfamily B member 4

LILRB1 [2] = target: T3, LILRB1 (human, UniProt Q8NHL6 24-458, limits assumed); assay: cross-reactivity ELISA (FIG. 46)
T3 construct: also called leukocyte immunoglobulin-like receptor subfamily B member 1

LILRB5 [3] = target: T4, LILRB5 (human, UniProt O75023 24-458, limits assumed); assay: cross-reactivity ELISA (FIG. 46)
D2-SR-M2(139-235) [4] = target: T1, D2-SR-M2(139-235); assay: ELISA, mAb 216-2 titrated
D2-SR-M15(139-219) [5] = assay: ELISA, mAb 216-2 titrated
human LILRB4 [6] = target: T2, human LILRB4; assay: ELISA, OD450 against antibody concentration
D2 = target: T5, D2; assay: matrix of binding to LILRB4 domain-Fc fusions (FIG. 47); ELISA per paragraph 433
T5 construct: also called LILRB4 D2-hIgG1-Fc; second Ig-like domain of LILRB4 as Fc fusion

SR = target: T6, SR; assay: as above
T6 construct: also called LILRB4 SR-hIgG1-Fc; stalk region of LILRB4 as Fc fusion

[7] = target: T7, LILRB4 D1 (first Ig-like domain) Fc fusion protein (human, UniProt Q8NHJ6 27-118); assay: as above
T7 construct: also called D1 of LILRB4; not shown: Fc part

D2-SR-M2(139-235) [8] = target: T1, D2-SR-M2(139-235); assay: ELISA, mAb 8 titrated
D2-SR-M15(139-219) [9] = assay: ELISA, mAb 8 titrated
D2-SR-M1(139-259) = assay: ELISA, mAb titrated on D2-SR-M1(139-259)
D2-SR-Fc [10] = target: T8, D2-SR-Fc; assay: ELISA, mAb titrated on D2-SR-wt(119-259)
T8 construct: also called D2-SR-WT

human LILRB4 [11] = target: T2, human LILRB4; assay: ELISA, OD450 against antibody concentration; remark: listed apart in the source
LILRB1 [12] = target: T3, LILRB1; assay: cross-reactivity test on the LILRBs (ELISA per paragraph 433)
LILRB2 [13] = target: T9, LILRB2 (human, UniProt Q8N423 22-458, limits assumed); assay: as above
T9 construct: also called leukocyte immunoglobulin-like receptor subfamily B member 2

LILRB3 [14] = target: T10, LILRB3 (human, UniProt O75022 24-443, limits assumed); assay: as above
T10 construct: also called leukocyte immunoglobulin-like receptor subfamily B member 3

LILRB5 [15] = target: T4, LILRB5; assay: as above
human LILRB4 [16] = target: T2, human LILRB4; assay: reactivity table, assay not named on the sheet
LILRB3 [17] = target: T10, LILRB3; assay: reactivity table, assay not named on the sheet
LILRB5 [18] = target: T4, LILRB5; assay: reactivity table, assay not named on the sheet
LILRB2 [19] = target: T9, LILRB2; assay: flow cytometry on LILRB2-overexpressing 293T cells, mAb at 2 ug/ml
LILRB4-ECD-Fc = target: T11, LILRB4-ECD-Fc (human, UniProt Q8NHJ6 27-259); assay: ELISA, mAb titrated
T11 construct: also called LILRB4-Fc; LILRB4 ECD-Fc fusion protein; not shown: Fc part

[20] = target: T7, LILRB4 D1 (first Ig-like domain) Fc …; assay: ELISA, mAb titrated
human LILRB4 [21] = target: T2, human LILRB4; assay: ELISA, OD450 against antibody concentration; remark: listed apart in the source
human LILRB4 [22] = target: T2, human LILRB4; assay: ELISA, mAb titrated on the WT protein of the LILRB4 mutant series of FIG. 52 (construct limits not stated)
D2-SR-Fc [23] = target: T8, D2-SR-Fc; assay: ELISA, mAb titrated
LILRB3 [24] = target: T10, LILRB3; assay: cross-reactivity ELISA (FIG. 46)
D2-SR-M16(210-259) = assay: ELISA, mAb 139 titrated
human LILRB4 [25] = target: T2, human LILRB4; assay: ELISA, OD450 against antibody concentration; remark: listed apart in the source

T5 sequence (fusion chain, as listed by the source): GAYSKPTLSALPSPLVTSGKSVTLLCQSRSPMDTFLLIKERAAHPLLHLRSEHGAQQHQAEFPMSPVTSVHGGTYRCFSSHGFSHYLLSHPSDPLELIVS
T6 sequence (fusion chain, as listed by the source): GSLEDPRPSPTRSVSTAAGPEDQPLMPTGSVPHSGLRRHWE
T10 sequence (O75022 24-443 limits assumed): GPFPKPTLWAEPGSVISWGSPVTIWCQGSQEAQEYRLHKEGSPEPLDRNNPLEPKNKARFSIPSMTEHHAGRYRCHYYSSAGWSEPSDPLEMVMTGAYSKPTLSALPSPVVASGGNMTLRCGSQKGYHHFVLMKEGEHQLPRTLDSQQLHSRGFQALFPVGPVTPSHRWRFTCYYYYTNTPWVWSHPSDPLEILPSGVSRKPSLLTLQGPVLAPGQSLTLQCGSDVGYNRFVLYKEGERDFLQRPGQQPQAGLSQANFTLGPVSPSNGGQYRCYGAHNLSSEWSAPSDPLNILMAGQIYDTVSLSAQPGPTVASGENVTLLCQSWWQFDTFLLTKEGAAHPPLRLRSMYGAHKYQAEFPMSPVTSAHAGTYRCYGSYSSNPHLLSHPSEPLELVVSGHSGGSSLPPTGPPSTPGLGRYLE
T4 sequence (O75023 24-458 limits assumed): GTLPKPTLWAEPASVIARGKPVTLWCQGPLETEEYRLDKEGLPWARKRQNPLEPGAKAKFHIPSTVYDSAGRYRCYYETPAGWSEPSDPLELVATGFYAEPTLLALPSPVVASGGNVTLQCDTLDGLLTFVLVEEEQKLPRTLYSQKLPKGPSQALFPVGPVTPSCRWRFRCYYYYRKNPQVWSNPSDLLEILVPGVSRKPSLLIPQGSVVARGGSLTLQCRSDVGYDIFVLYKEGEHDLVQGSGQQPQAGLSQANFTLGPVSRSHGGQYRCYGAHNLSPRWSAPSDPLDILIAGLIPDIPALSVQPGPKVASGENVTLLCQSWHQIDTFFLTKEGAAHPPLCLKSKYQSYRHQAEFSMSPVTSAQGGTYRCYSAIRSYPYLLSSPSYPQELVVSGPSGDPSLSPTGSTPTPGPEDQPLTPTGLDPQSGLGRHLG
T7 sequence (Q8NHJ6 27-118): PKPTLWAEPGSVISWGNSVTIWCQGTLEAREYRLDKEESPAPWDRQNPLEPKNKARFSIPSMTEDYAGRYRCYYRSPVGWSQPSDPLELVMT
T9 sequence (Q8N423 22-458 limits assumed): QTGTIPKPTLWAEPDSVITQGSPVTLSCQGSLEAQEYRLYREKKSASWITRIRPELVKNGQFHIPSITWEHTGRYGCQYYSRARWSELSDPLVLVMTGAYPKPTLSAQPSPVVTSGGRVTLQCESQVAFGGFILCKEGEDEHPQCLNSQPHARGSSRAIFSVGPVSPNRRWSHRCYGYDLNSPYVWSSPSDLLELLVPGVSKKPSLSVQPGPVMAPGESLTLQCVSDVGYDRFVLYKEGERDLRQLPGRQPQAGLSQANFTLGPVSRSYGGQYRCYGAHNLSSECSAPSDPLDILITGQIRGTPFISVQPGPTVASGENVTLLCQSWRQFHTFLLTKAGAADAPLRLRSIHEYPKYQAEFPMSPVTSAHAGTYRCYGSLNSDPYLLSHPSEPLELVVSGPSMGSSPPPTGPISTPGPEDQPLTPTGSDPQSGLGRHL
T3 sequence (Q8NHL6 24-458 limits assumed): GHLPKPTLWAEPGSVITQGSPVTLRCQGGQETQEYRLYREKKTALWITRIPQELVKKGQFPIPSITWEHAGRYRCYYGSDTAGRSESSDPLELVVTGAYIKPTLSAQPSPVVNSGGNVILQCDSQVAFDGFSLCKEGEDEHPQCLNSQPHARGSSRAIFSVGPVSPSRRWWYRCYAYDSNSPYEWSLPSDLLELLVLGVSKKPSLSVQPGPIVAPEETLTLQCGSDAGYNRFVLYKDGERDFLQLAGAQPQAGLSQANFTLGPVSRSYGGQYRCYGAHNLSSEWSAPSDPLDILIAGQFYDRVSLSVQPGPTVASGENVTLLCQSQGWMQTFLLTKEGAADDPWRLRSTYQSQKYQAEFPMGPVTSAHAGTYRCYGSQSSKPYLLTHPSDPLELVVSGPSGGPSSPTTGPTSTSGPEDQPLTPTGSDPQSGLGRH
T8 sequence (Q8NHJ6 119-259): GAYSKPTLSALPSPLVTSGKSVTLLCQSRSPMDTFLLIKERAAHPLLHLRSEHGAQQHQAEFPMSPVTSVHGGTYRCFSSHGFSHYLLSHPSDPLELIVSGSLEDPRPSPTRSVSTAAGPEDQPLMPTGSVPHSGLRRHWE
D2-SR-M16(210-259), sequence (chain, as listed by the source): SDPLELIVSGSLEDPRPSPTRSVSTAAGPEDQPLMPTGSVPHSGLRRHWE

Binder | EC50 (human LILRB4 [1]) [nM] | binding result (LILRB5 [3]) | binding result (D2) | binding result (SR) | binding result [7] | binding result (LILRB1 [12]) | binding result (LILRB2 [13]) | binding result (LILRB3 [14]) | binding result (LILRB5 [15]) | other results
B1 | 0.0647 | binds | no binding | binds | no binding | – | – | – | – | binding result (LILRB1 [2]): binds; binding result (D2-SR-M2(139-235) [4]): no binding (tested: 1000 ng/ml); binding result (D2-SR-M15(139-219) [5]): no binding (tested: 1000 ng/ml); EC50 (human LILRB4 [6]): 0.0097 µg/mL
B2 | 0.0629 | – | no binding | binds | no binding | no binding | no binding | no binding | no binding | binding result (D2-SR-M2(139-235) [8]): no binding (tested: 1000 ng/ml); binding result (D2-SR-M15(139-219) [9]): no binding (tested: 1000 ng/ml); EC50 (read off the curve) (D2-SR-M1(139-259)): ~0.03 µg/mL; EC50 (read off the curve) (D2-SR-Fc [10]): ~0.03 µg/mL; EC50 (human LILRB4 [11]): 0.00943 µg/mL
B3 | – | – | – | – | – | – | – | – | – | binding result (human LILRB4 [16]): binds; binding result (LILRB3 [17]): binds; binding result (LILRB5 [18]): binds; % of cells in the positive gate (LILRB2 [19]): 18.7%
B4 | 0.184 | – | no binding | no binding | – | no binding | no binding | no binding | no binding | EC50 (read off the curve) (LILRB4-ECD-Fc): ~0.02 µg/mL; EC50 (read off the curve) [20]: ~0.02 µg/mL; EC50 (human LILRB4 [21]): 0.0276 µg/mL; EC50 (read off the curve) (human LILRB4 [22]): ~0.01 µg/mL
B5 | 0.0832 | binds | binds | no binding | no binding | no binding | – | – | – | EC50 (read off the curve) (D2-SR-Fc [23]): ~0.06 µg/mL; binding result (LILRB3 [24]): binds; binding result (D2-SR-M16(210-259)): no binding (tested: 1000 ng/ml); EC50 (human LILRB4 [25]): 0.0125 µg/mL
